Source: the nanobody polyreactivity screen of Harvey et al. (2022)

Assay: yeast display, Sf9 membrane polyspecificity reagent, FACS + sequencing; frameworks hold sequencing errors
Method in brief: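 After 36–48 hours of galactose induction, yeast (Saccharomyces cerevisiae BJ5465) displaying a synthetic nanobody library were stained at 4 °C for 1 hour with 10% biotinylated, detergent-solubilized Sf9 membrane reagent. Streptavidin microbeads enriched the stained cells before FACS sorting into low and high (top ~1%) gates on anti-HA and streptavidin fluorescence. Each clone's polyreactivity label reflects its gate of origin.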

QVQLVESGGGLVQAGGSLRISCAPSGIIFTDYAMGWYRQAPVKERELVAAISSGGGYTYYADSVKGRFTISRDNAKNTVYLQMISLKPEDTAVYYCAAEGYLISGAGDYLYDYYLGQGTQVTVSS
polyreactivity (PSR sort gate): high polyreactivity

QVQLVDSGGGLVQAGGSLRLSCAASGFSLSINAMGWYRQAPGKERELVDGISWSGGSTYYADSVKGRFTISRDNAKTTFYLQMNSLKTEDTAVYYCNADLFLFVYFGQYYWRTYNYWGQGTQVTVSS
polyreactivity (PSR sort gate): low polyreactivity

QVHLVESGGGLVQAGGSLRLSCAASGSTFISYAMGWYRQAPGKERELVAAISRNGGRTYYADSVKGRFTISRDNAKNTVYLQMNSLKPEDTAVYYCAAAYNSYRFDYWGQGTQVTVSS
polyreactivity (PSR sort gate): high polyreactivity

QVQLVESGGGLVQAGGSLRLSCAPSGSTFRPYGMGWYRQAPCKETELVAAINSGDSTYYADSVKGRFTISSDNAKNTVYLQMNSLKPEDTAVYYCAAGYYIRGRYGYWGQATQVTVSS
polyreactivity (PSR sort gate): high polyreactivity

QVQLVESGGGLVQAGGSLRLSCAPSGITFRPNAMGWYRQARGKERELVAAISSGDGTYADSVKGRFTISRDNAKNTVYLQMNSLKPEDSAVYYCNATGQSYVTSEYDYWGQGTQVTVSS
polyreactivity (PSR sort gate): low polyreactivity

QVQLVESGGGLVQAGGSLRLSCAASGIIFSKYAMGWYRQAPGKERELVARISWRGGDTYYADSVKGRFTISRDNAKNTVYLQMNSLKPEDTAVYYCNARIWGRYFSYTRFDYWGQGTQVTVSS
polyreactivity (PSR sort gate): high polyreactivity

QVQLVESAGGLVQAGGSLRLSCAASGSIFVYNTMGWYRQAPGKERELVASITYSGGSTYYADSVKGRFTISRDNAKNTVYLQMNSLKPEDTAVYYCNTDDVALQWDWYPYPYDYWGQGTQVTVSS
polyreactivity (PSR sort gate): low polyreactivity

QVQLVESGGGLVHAGGSLRLSSAPSGSTFQAYAMGWYRAAPGKERELVAAINEGDSRTYYADSVKGRFTISRDNAKNTVYLPMNSQKPEDTAVYYCAIGNFRPYDYWGQGTQVTVSS
polyreactivity (PSR sort gate): low polyreactivity

QFQLVESGGGLVQAGGSLSLSCAASGSTFVWYAMGWYRPAPGKERELVAAINFGGTTYYADSVKGRFTISRDNAKNTVYLQMNSLKPEDNAVYYCATEYDYGYWYPDGWVIFDYWVQGTQVTVSS
polyreactivity (PSR sort gate): low polyreactivity

QVQLVESGGGIVQAGGSLRLSCAASGGIFFIYTMGWYRQAPGKERELVAAITSTGDTNYADSVKGRFTISRDNAKNTVYLQMNSLKPEDTAVYYCNKDYGTRGKGYDYWGQGTQVTVSS
polyreactivity (PSR sort gate): low polyreactivity

QVQLVESGGGLVQAGGSLRLSCAASGSTFVPYTMGWYRQAPGKERELVAVISSSGGNTYYADSVKGRFTISRDNAKNTVYLQMNSLKPEDTAVYYCNKDYWYPNYRRYEYWGQGTQVTVSS
polyreactivity (PSR sort gate): low polyreactivity

QVQLVESGGGLVQAGGSLRISCAASGSIFPTYAMGWYRQAPGKERELVAAISGSGGSTYYADSVKGRFTISRDNAKNTVYFQINSLKPEDTAVYYCAVRRRRYHTYYRGYDNWGQGTQVTVSA
polyreactivity (PSR sort gate): low polyreactivity

QVQLQESGGGLVQAGGSLCLSCAASGTIFFDGDMGWNRQAPGKEREFVAAINPGGSAYYADSVKGRLPLAAITHTVYMQMYSLKPEDTAVYYCEAILFDVYGYYYWGQGTNVTVSS
polyreactivity (PSR sort gate): low polyreactivity

QVQLVESGGGLVQAGGSLRLSCAASGIIFEYYAMGWYRQAPGKEWELVAAITDDGVVTYYGDSVKGRFTISRDNAKNTVYLQMNSLKPEDTAVYYCAAESYWTATYTYDYWGQGTQVTVSS
polyreactivity (PSR sort gate): high polyreactivity

QVQLVDSGGGIVQEGGSRRLSCAASGSIFVNYAMGWYRQAPGKERELVAAITLRGVSTFYADSVKGRFTISRDNAKNTVYLQMNSLKPEETAVYYCAASSLRYRAYKSLFDYWGQGTQVTVSS
polyreactivity (PSR sort gate): low polyreactivity

QVQLVESGGGLVQAGGSLRLSCAASGFIFWWYTMGWYRQAPGKETELVAAITGSGGSTYYADSVKGRFTISRDNAKNTVYLQMNSLKPEDTAVYYCNAVSAYKWQYDYWGQGTQVTVSS
polyreactivity (PSR sort gate): high polyreactivity

QVQLEDSGGGLVQAGGRLRLSCAASGYIFSDYAMGWYRQAPGKERELVADIRARGGSTYYADSVKGRFTISRDKAQNTVYLQMNSLKPEDTAVYYCNVEDPFYSGVVEFDYWGQGTQVTVSS
polyreactivity (PSR sort gate): low polyreactivity

QVQLLESGGGLVQAGGSLRLSCAASGNTLRYNVMGWYRQAPGKERELFAAISGGGSTSYADSVKGRFTISRDNAKNTVYLQMNSLKPEDTAVYYCAKRSFVGGRGRDSDYRGQGTQVTVSS
polyreactivity (PSR sort gate): low polyreactivity

QVQLVESGAGLVQAGGSLRLSCAASGRTFFRYVMGWYRQAPGKERELVAAIRSGGSTNYADSVKGRFTISLDNAKNTVYLQMNSLKPEDTAVYYCAARKWHSAYDYWVQGTQVTVSS
polyreactivity (PSR sort gate): high polyreactivity

QVQLVESGGGLVQAGGSLRLSCAASGFTFTRYAMGWYRQAPGKERELVAAISSRGGSTNYADSVKGRFTISRDNAKNTVYLQMNSLKPEDTAVYYCAAEYYRLRYEYDYWGQGTQVTVSS
polyreactivity (PSR sort gate): high polyreactivity

QVQLVESGGGLVQAGGSLRLSCAASGGIYYYAMGWDRQAPGKERELVAAISSGGGNTNYADSVKGRFTISRDNAKNTVYLQMNSLKPVDTAVYYCAAEHPVTYRTSKFDYWGQGTQVTVSS
polyreactivity (PSR sort gate): low polyreactivity

QVQLVESGRGLVQAGGSLRLSCAASGSIFDKYAMGWDRQAPGKEREMVAAISYSGGRTYYADSVKGRFTISRDNAKNTVYLQMNCLNPEDTAVYYCNAVGSVITDFGYWGQGTQVTVSS
polyreactivity (PSR sort gate): low polyreactivity

QVQLVESGGGLVQAGGSLRLSCAASGFIFYRYAMGWYRQAPGKERELVAAITGGGSTYYADSVKGRFTISRDNAKNNFYLQMNSLKPEDTAVYYCAARKRYWFTPYDYWGQGTQVTVSS
polyreactivity (PSR sort gate): high polyreactivity

QVQIVESGGGLLQAGGSLRLSCAASGSTFERYAMGWYRQAPWKERELVAAIDSSGGTTYYADSVKGRFTISRDNAKNTDYLQMNSLKPEDTAVYYCAADPGYYSVAYDYWGQGTQVTVSA
polyreactivity (PSR sort gate): low polyreactivity

QVQLVESGGGLVQAGGSLRLSCAASGGTFGGYAMGWYRQAPGKERELVAVISQSGGTTYYADSVKGRFTISRDNAKNTVYLQMNSLKPEDTAVYYCNAYTYYKRFGYWGQGTQVTVSS
polyreactivity (PSR sort gate): high polyreactivity

QVQLLESGGGLVQAGGSLRLSCAASGYIFGWYTMGWYRQAPGKERELVAAISYSGGDTYYADSVKGRFTNTRDNAKNTVYLQMNSLKPEDTAVYYCAAVDPASPLGEYWGQGTQVTVSS
polyreactivity (PSR sort gate): low polyreactivity

QVQLVDSGGGLVQAGGSLRLSCAASGRTFRYYAMGSYRQAPGKERELVAAISGRGGSTYYADSVKGRFTISRDNAKNTVYLLMNSLKPADTAVYYCAKRGYYRSRRYDYWGQGTQVTVSS
polyreactivity (PSR sort gate): high polyreactivity

QVQLVESGVGLVQAGGTLRLSCAASGSIFDWNVIGWYRQTPGKERELVASISESTDSTYYADSVKGRFTISRDNAKNTVYFQMNSLKPEDTAVYYCATAYPEWAVWGYDYWGQGTQVTLSS
polyreactivity (PSR sort gate): low polyreactivity

QVQLVESGGGLVQAGGSLRLSCAASGIIFSSYAMGWYRQAPGKERELVAAITYNGGRTYYADSVKGRFTISRDNAKNTVYLQMNSVKPEDTAVYYCAAERYPYGVTYSKLDYWGQGTQVTVSS
polyreactivity (PSR sort gate): high polyreactivity

QVQLVESGGGLVQAGGSLRLSCAASGIIFEPYAMGWYRQAPGKERELVASIRWSDGSTFYADSVKGRFTISRDNAKNTVYLQMNSLKPEDTAVYYCNAVYEHRRVGWVTIDYGYWGQGSQVTVSS
polyreactivity (PSR sort gate): low polyreactivity

QVQLVESGGGLVQAGGSLRLSCAASGSIFYYNAMGWYRQEPGKERELVATITSAVSTNYADSVKGRFTISRDNAKNTVYLQMNSLKPQDTAVYYCAADDYQVQYDYWGQGTQVTVSS
polyreactivity (PSR sort gate): low polyreactivity

QVQLVESGGGLVQAGGSLRLSCAAAGRTFYPYVMGWYRQAPGKERELVATISWSGGSTYYADSVKGRFTISRDNAKNSVYLQMNSLKPEDTAVYYCAALWPYGYWGQGTQVTVSS
polyreactivity (PSR sort gate): low polyreactivity
